Test results taken from PMC6624373.

B1: lamin A (human, mature form, without tags, wild type) [human] / itself (parent)
chain: METPSQRRATRSGAQASSTPLSPTRITRLQEKEDLQELNDRLAVYIDRVRSLETENAGLRLRITESEEVVSREVSGIKAAYEAELGDARKTLDSVAKERARLQLELSKVREEFKELKARNTKKEGDLIAAQARLKDLEALLNSKEAALSTALSEKRTLEGELHDLRGQVAKLEAALGEAKKQLQDEMLRRVDAENRLQTMKEELDFQKNIYSEELRETKRRHETRLVEIDNGKQREFESRLADALQELRAQHEDQVEQYKKELEKTYSAKLDNARQSAERNSNLVGAAHEELQQSRIRIDSLSAQLSQLQKQLAAKEAKLRDLEDSLARERDTSRRLLAEKEREMAEMRARMQQQLDEYQELLDIKLALDMEIHAYRKLLEGEEERLRLSPSPTSQRSRGRASSHSSQTQGGGSVTKKRKLESTESRSSFSQHARTSGRVAVEEVDEEGKFVRLRNKSNEDQSMGNWQIKRQNGDDPLLTYRFPPKFTLKAGQVVTIWAAGAGATHSPPTDLVWKAQNTWGCGNSLRTALINSTGEEVAMRKLVRSVTVVEDDEDEDGDDLLHHHHGSHCSSSGDPAEYNLRSRTVLCGTCGQPADKASASGSGAQVGGPISSGSSASSVTVTRSYRSVGGSGGGSFGDNLVTRSY

Variants of: B1
Test: rotary metal shadowing EM
Settings: with itself; n = 1000 per mutant; parent: 22; read off a plot

Row | screen value [%] | Variant
1 | 13 | chain 1 R7E R8E

Same assay, conditions: with itself; n = 1000 per mutant; parent: 35; read off a plot

Row | screen value [%] | Variant
2 | 30 | chain 1 R7E R8E

Same assay, conditions: with itself; n = 1000 per mutant; parent: 43; read off a plot

Row | screen value [%] | Variant
3 | 57 | chain 1 R7E R8E

Variants of: B1
Test: in vitro assembly/solubility assay (centrifugation, SDS-PAGE band quantification)
Settings: with itself; oligomerisation buffer; n = 3 independent replicas; parent: 1; read off a plot

Row | ratio to parent | Variant
4 | 3.7 | chain 1 R7E R8E
